Data reported in publication doi:10.1101/2020.05.29.124305 (bioRxiv, 2020).

Target: the molecule itself
Assay: cryo-EM structure

B1: Human ASCT2 (Alanine-Serine-Cysteine Transporter 2, SLC1A5) (natural protein)
chain: MVADPPRDSKGLAAAEPTANGGLALASIEDQGAAAGGYCGSRDQVRRCLRANLLVLLTVVAVVAGVALGLGVSGAGGALALGPERLSAFVFPGELLLRLLRMIILPLVVCSLIGGAASLDPGALGRLGAWALLFFLVTTLLASALGVGLALALQPGAASAAINASVGAAGSAENAPSKEVLDSFLDLARNIFPSNLVSAAFRSYSTTYEERNITGTRVKVPVGQEVEGMNILGLVVFAIVFGVALRKLGPEGELLIRFFNSFNEATMVLVSWIMWYAPVGIMFLVAGKIVEMEDVGLLFARLGKYILCCLLGHAIHGLLVLPLIYFLFTRKNPYRFLWGIVTPLATAFGTSSSSATLPLMMKCVEENNGVAKHISRFILPIGATVNMDGAALFQCVAAVFIAQLSQQSLDFVKIITILVTATASSVGAAGIPAGGVLTLAIILEAVNLPVDHISLILAVDWLVDRSCTVLNVEGDALGAGLLQNYVDRTESRSTEPELIQVKSELPLDPLPVPTEEGNPLLKHYRGPAGDATVASEKESVM
  stoichiometry N: 3
